The source of these data is patent publication US20210371487A1.

Like-named read-outs stand apart in the source and are kept apart here.

Data set [1] concerns the target Factor X (UniProt P00742). Put plainly: cell-based or functional assay.
Data set [2] has as its target Factor X (UniProt P00742). The data set is described as follows: cell-based or functional assay. This is another data set of the same source.
Data set [3] deals with Factor X (UniProt P00742).

Factor X, P00742, sequence (P00742 whole entry, looked up): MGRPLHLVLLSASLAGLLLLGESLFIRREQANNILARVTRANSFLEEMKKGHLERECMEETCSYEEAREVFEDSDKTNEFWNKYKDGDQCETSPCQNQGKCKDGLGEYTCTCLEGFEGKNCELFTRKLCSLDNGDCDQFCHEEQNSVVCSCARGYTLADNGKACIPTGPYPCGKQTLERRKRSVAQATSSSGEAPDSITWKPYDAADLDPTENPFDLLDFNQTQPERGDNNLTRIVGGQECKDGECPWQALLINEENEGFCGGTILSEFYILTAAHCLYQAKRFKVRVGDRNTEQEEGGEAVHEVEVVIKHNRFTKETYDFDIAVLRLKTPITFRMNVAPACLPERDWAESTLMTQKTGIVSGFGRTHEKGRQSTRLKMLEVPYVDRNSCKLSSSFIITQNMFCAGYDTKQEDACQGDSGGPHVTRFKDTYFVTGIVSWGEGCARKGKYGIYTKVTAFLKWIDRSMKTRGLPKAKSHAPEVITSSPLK

Regarding FIX-CTP-CTP (enzyme), the EC50, FIX chromogenic activity (BIOPHEN kit) in the data set with Factor X [1] was 0.382 µg/mL; in the data set with Factor X [2], 0.505 µg/mL. As for FIX-CTP-CTP, in the data set with Factor X [3], the “fold decrease in the enzymatic activity (chromogenic assay)” value is “An approximately 15-fold decrease in the enzymatic activity of the FIX-(CTP)2 harvest was observed”, the “fold decrease in the enzymatic activity versus normal human pulled plasma (chromogenic assay)” value is reported as “a 16.5-fold decrease versus normal human pulled plasma” and the “fold decrease in the enzymatic activity vs. recombinant FIX (chromogenic assay)” value was “An approximately 7-fold decrease in the enzymatic activity of FIX-CTP-CTP was observed vs. recombinant FIX”. Regarding “rhFIX (American Diagnostics) (from UniProt P00740 47-461) (enzyme)”, the EC50, FIX chromogenic activity (BIOPHEN kit) was found to be 0.021 µg/mL with Factor X [1] and 0.0687 µg/mL with Factor X [2]. As for “FIX-CTP (from UniProt P00740 47-461) (enzyme)”, the EC50, FIX chromogenic activity (BIOPHEN kit) in the data set with Factor X [1] is 1.64 µg/mL. Take FIX-CTP5 (enzyme): the Sample/plasma EC50 ratio (FIX chromogenic activity, BIOPHEN kit) with Factor X [1] was determined as 2.73. In the case of FIX-CTP4 (enzyme), in the data set with Factor X [1], the Sample/plasma EC50 ratio (FIX chromogenic activity, BIOPHEN kit) worked out at 5.35. Turning to FIX-CTP3 (enzyme), the Sample/plasma EC50 ratio (FIX chromogenic activity, BIOPHEN kit) in the data set with Factor X [1] was determined as 2.

B1: rFVII-CTP (protein)
chain: AVFVTQEEAHGVLHRRRRANAFLEELRPGSLERECKEEQCSFEEAREIFKDAERTKLFWISYSDGDQCASSPCQNGGSCKDQLQSYICFCLPAFEGRNCETHKDDQLICVNENGGCEQYCSDHTGTKRSCRCHEGYSLLADGVSCTPTVEYPCGKIPILEKRNASKPQGRIVGGKVCPKGECPWQVLLLVNGAQLCGGTLINTIWVVSAAHCFDKIKNWRNLIAVLGEHDLSEHDGDEQSRRVAQVIIPSTYVPGTTNHDIALLRLHQPVVLTDHVVPLCLPERTFSERTLAFVRFSLVSGWGQLLDRGATALELMVLNVPRLMTQDCLQQSRKVGDSPNITEYMFCAGYSDGSKDSCKGDSGGPHATHYRGTWYLTGIVSWGQGCATVGHFGVYTRVSQYIEWLQKLMRSEPRPGVLLRAPFPSSSSKAPPPSLPSPSRLPGPSDTPILPQ
As to B1, the “FVII chromogenic activity (AssaySense Human FVII Chromogenic Activity Assay Kit)” value in the data set with Factor X, P00742 is reported as “The addition of the CTP peptide at the C-terminal of the rFVII protein did not impair the FVII serine protease activity”.
